Measured values from paper PMC6420652 (2019).

B1: Clover-AZIN (antizyme inhibitor with an N-terminal Clover tag) [human] / antizyme-mRuby2 (antizyme with a C-terminal mRuby2 tag) [human] (parent complex)
chain 1: MKGFIDDANYSVGLLDEGTNLGNVIDNYVYEHTLTGKNAFFVGDLGKIVKKHSQWQNVVAQIKPFYTVKCNSAPAVLEILAALGTGFACSSKNEMALVQELGVPPENIIYISPCKQVSQIKYAAKVGVNILTCDNEIELKKIARNHPNAKVLLHIATEDNIGGEEGNMKFGTTLKNCRHLLECAKELDVQIIGVKFHVSSACKESQVYVHALSDARCVFDMAGEIGFTMNMLDIGGGFTGTEFQLEEVNHVISPLLDIYFPEGSGVKIISEPGSYYVSSAFTLAVNIIAKKVVENDKFPSGVEKTGSDEPAFMYYMNDGVYGSFASKLSEDLNTIPEVHKKYKEDEPLFTSSLWGPSCDELDQIVESCLLPELNVGDWLIFDNMGADSFHEPSAFNDFQRPAIYYMMSFSDWYEMQDAGITSDSMMKNFFFVPSCIQLSQEDSFSAEA
chain 2: not shown

Variants of: B1
Test: FRET titration; parent: 24 nM; read off a plot

Variant	Kd [nM]
chain 1 K115A	~23
chain 1 F398A	~23
chain 1 F170A	~27
chain 1 D423A	~23
chain 1 S329A	~24
chain 1 K63A	~23
chain 1 D214A	~27
chain 1 E366A	~31
chain 1 S393A	~25
chain 1 S91A	~26
chain 1 C114A	~28
chain 1 N93A	~35
chain 1 L361A	~55
chain 1 S367A	~39
chain 1 D359A	~41
chain 1 K92A	~25
chain 1 Y321A	~27
chain 1 K175A	~30
chain 1 N396A	~47
chain 1 F395A	~58
chain 1 L328A	~26

Further lines, results first:

Kd [nM]	Variant
~21	chain 1 K69A
~19	chain 1 K141A
~21	chain 1 M168A
~18	chain 1 D134A
~21	chain 1 K169A
~9.6	chain 1 Q119A
~20	chain 1 E138A
~12	chain 1 E391A
~21	chain 1 Q116A
~9.3	chain 1 L139A
~15	chain 1 S118A
~20	chain 1 E136A
~10	chain 1 R144A

Variants of: B1
Test: FRET titration; Clover-containing proteins 50 nM; titration of AZ-mRuby2; parent: 22.2 nM

Kd [nM]	Variant
28.6	chain 1 S329Y
